The results in this text go back to the Human Domainome abundance scans (Beltran et al. 2025).

± gives the uncertainty stated by the source.

The chains are these.
B1: Tripartite motif-containing protein 6, residues 93 to 134; numbered along this chain, Q9C030 (parent)
chain: KAVLCADHGEKLQLFCQEDGKVICWLCERSQEHRGHHTFLVE

The variants in the data set derive from B1. Nature of the data set: abundance fitness (aPCA) (normalised: wild type 0, dead -1); higher = more abundant; growth selection in yeast, the domain comes from the species named. The settings on record: Homo sapiens.
In the case of KAVLCADHGEKLQLFCQEDGKVICWLCERSQEHRGHHTFLLE [V41L], the abundance fitness was -0.034 ± 0.37.

For KAVLCADHGEKLQLFCQEDGKVICWLCERSQEHRGHHTFLAE [V41A], the abundance fitness amounted to 0.16 ± 0.054.

As to KAVLCADHGEKLQLFCQEDGKVICWLCERSQEHRGHHTFLTE [V41T], the abundance fitness was found to be 0.064 ± 0.072.

For KAVLCADHGEKLQLFCQEDGKVICWLCERSQEHRGHHTFLPE [V41P], the abundance fitness stood at 0.036 ± 0.13.

KAVLCADHGEKLQLFCQEDGKVICWLCERSQEHRGHHTFLIE [V41I]: the abundance fitness is -0.246 ± 0.13.

For the variant KAVLCADHGEKLQLFCQEDGKVICWLCERSQEHRGHHTFLGE [V41G], the abundance fitness is -0.11 ± 0.088.

On to KAVLCADHGEKLQLFCQEDGKVICWLCERSQEHRGHHTFLEE [V41E], for which the abundance fitness amounted to 0.029 ± 0.094.

As to KAVLCADHGEKLQLFCQEDGKVICWLCERSQEHRGHHTFLCE [V41C], the abundance fitness was -0.165 ± 0.099.

As to KAVLCADHGEKLQLFCQEDGKVICWLCERSQEHRGHHTFLSE [V41S], the abundance fitness was -0.051 ± 0.076.

On to KAVLCADHGEKLQLFCQEDGKVICWLCERSQEHRGHHTFLWE [V41W], for which the abundance fitness is -0.043 ± 0.076.

In the case of KAVLCADHGEKLQLFCQEDGKVICWLCERSQEHRGHHTFLME [V41M], the abundance fitness is -0.143 ± 0.16.

As for KAVLCADHGEKLQLFCQEDGKVICWLCERSQEHRGHHTFLNE [V41N], the abundance fitness turned out to be 0.041 ± 0.17.

For the variant KAVLCADHGEKLQLFCQEDGKVICWLCERSQEHRGHHTFLRE [V41R], the abundance fitness was determined as 0.149 ± 0.057.

Consider KAVLCADHGEKLQLFCQEDGKVICWLCERSQEHRGHHTFLQE [V41Q], for which the abundance fitness was determined as 0.259 ± 0.1.

For KAVLCADHGEKLQLFCQEDGKVICWLCERSQEHRGYHTFLVE [H36Y], the abundance fitness is -1.03 ± 0.34.

On to KAVLCADHGEKLQLFCQEDGKVICWLCERSQEHRGMHTFLVE [H36M], for which the abundance fitness was -0.606 ± 0.15.

Consider KAVLCADHGEKLQLFCQEDGKVICWLCERSQEHRGKHTFLVE [H36K], for which the abundance fitness is -0.558 ± 0.096.

Take KAVLCADHGEKLQLFCQEDGKVICWLCERSQEHRGLHTFLVE [H36L]: the abundance fitness is -0.523 ± 0.074.

Regarding KAVLCADHGEKLQLFCQEDGKVICWLCERSQEHRGSHTFLVE [H36S], the abundance fitness was -0.365 ± 0.077.

On to KAVLCADHGEKLQLFCQEDGKVICWLCERSQEHRGWHTFLVE [H36W], for which the abundance fitness is -0.781 ± 0.071.

As for KAVLCADHGEKLQLFCQEDGKVICWLCERSQEHRGQHTFLVE [H36Q], the abundance fitness is -0.303 ± 0.13.

Take KAVLCADHGEKLQLFCQEDGKVICWLCERSQEHRGRHTFLVE [H36R]: the abundance fitness is -0.481 ± 0.052.

As for KAVLCADHGEKLQLFCQEDGKVICWLCERSQEHRGHCTFLVE [H37C], the abundance fitness is -0.17 ± 0.13.

Regarding KAVLCADHGEKLQLFCQEDGKVICWLCERSQEHRGHITFLVE [H37I], the abundance fitness was -0.032 ± 0.29.

In the case of KAVLCADHGEKLQLFCQEDGKVICWLCERSQEHRGHWTFLVE [H37W], the abundance fitness was -0.503 ± 0.13.

As to KAVLCADHGEKLQLFCQEDGKVICWLCERSQEHRGHSTFLVE [H37S], the abundance fitness was -0.123 ± 0.17.

As to KAVLCADHGEKLQLFCQEDGKVICWLCERSQEHRGHFTFLVE [H37F], the abundance fitness stood at 0.117 ± 0.2.

Regarding KAVLCADHGEKLQLFCQEDGKVICWLCERSQEHRGHRTFLVE [H37R], the abundance fitness is 0.002 ± 0.079.

KAVLCADHGEKLQLFCQEDGKVICWLCERSQEHRGHVTFLVE [H37V]: the abundance fitness was -0.265 ± 0.46.

In the case of KAVLCADHGEKLQLFCQEDGKVICWLCERSQEHRGHLTFLVE [H37L], the abundance fitness was -0.431 ± 0.2.

With KAVLCADHGEKLQLFCQEDGKVICWLCERSQEHRGHHGFLVE [T38G], the abundance fitness is -0.177 ± 0.12.

KAVLCADHGEKLQLFCQEDGKVICWLCERSQEHRGHHEFLVE [T38E]: the abundance fitness was -0.265 ± 0.43.

For the variant KAVLCADHGEKLQLFCQEDGKVICWLCERSQEHRGHHTFNVE [L40N], the abundance fitness came out at 0.115 ± 0.13.

As to KAVLCADHGEKLQLFCQEDGKVICWLCERSQEHRGHHTFPVE [L40P], the abundance fitness turned out to be 0.11 ± 0.077.

In the case of KAVLCADHGEKLQLFCQEDGKVICWLCERSQEHRGHHTFVVE [L40V], the abundance fitness was -0.072 ± 0.068.

On to KAVLCADHGEKLQLFCQEDGKVICWLCERSQEHRGHHTFGVE [L40G], for which the abundance fitness is 0.052 ± 0.076.

On to KAVLCADHGEKLQLFCQEDGKVICWLCERSQEHRGHHTFKVE [L40K], for which the abundance fitness was -0.154 ± 0.2.

Take KAVLCADHGEKLQLFCQEDGKVICWLCERSQEHRGHHTFTVE [L40T]: the abundance fitness worked out at 0.041 ± 0.085.

For KAVLCADHGEKLQLFCQEDGKVICWLCERSQEHRGHHTFMVE [L40M], the abundance fitness amounted to 0.207 ± 0.1.

In the case of KAVLCADHGEKLQLFCQEDGKVICWLCERSQEHRGHHTFHVE [L40H], the abundance fitness is -0.062 ± 0.14.

As to KAVLCADHGEKLQLFCQEDGKVICWLCERSQEHRGHHTFAVE [L40A], the abundance fitness was 0.169 ± 0.073.

In the case of KAVLCADHGEKLQLFCQEDGKVICWLCERSQEHRGHHTFWVE [L40W], the abundance fitness was -0.112 ± 0.14.

Turning to KAVLCADHGEKLQLFCQEDGKVICWLCERSQEHRGHHTFCVE [L40C], the abundance fitness was -0.188 ± 0.13.

Consider KAVLCADHGEKLQLFCQEDGKVICWLCERSQEHRGHHTFDVE [L40D], for which the abundance fitness came out at 0.091 ± 0.17.

For the variant KAVLCADHGEKLQLFCQEDGKVICWLCERSQEHRGHHTFQVE [L40Q], the abundance fitness stood at 0.224 ± 0.12.

For KAVLCADHGEKLQLFCQEDGKVICWLCERSQEHRGHHTFEVE [L40E], the abundance fitness was 0.009 ± 0.19.

For the variant KAVLCADHGEKLQLFCQEDGKVICWLCERSQEHRGHHTRLVE [F39R], the abundance fitness came to 0.19 ± 0.061.

In the case of KAVLCADHGEKLQLFCQEDGKVICWLCERSQEHRGHHTQLVE [F39Q], the abundance fitness came out at 0.139 ± 0.078.

KAVLCADHGEKLQLFCQEDGKVICWLCERSQEHRGHHTTLVE [F39T]: the abundance fitness is 0.111 ± 0.095.

On to KAVLCADHGEKLQLFCQEDGKVICWLCERSQEHRGHHTPLVE [F39P], for which the abundance fitness is -0.487 ± 0.36.

Take KAVLCADHGEKLQLFCQEDGKVICWLCERSQEHRGHHTGLVE [F39G]: the abundance fitness stood at 0.093 ± 0.053.

Consider KAVLCADHGEKLQLFCQEDGKVICWLCERSQEHRGHHTNLVE [F39N], for which the abundance fitness worked out at 0.041 ± 0.11.

Consider KAVLCADHGEKLQLFCQEDGKVICWLCERSQEHRGHHTKLVE [F39K], for which the abundance fitness worked out at 0.435 ± 0.26.

For the variant KAVLCADHGEKLQLFCQEDGKVICWLCERSQEHRGHHTMLVE [F39M], the abundance fitness worked out at 0.01 ± 0.15.

With KAVLCADHGEKLQLFCQEDGKVICWLCERSQEHRGHHTVLVE [F39V], the abundance fitness was 0.117 ± 0.061.

On to KAVLCADHGEKLQLFCQEDGKVICWLCERSQEHRGHHTWLVE [F39W], for which the abundance fitness was -0.149 ± 0.13.

In the case of KAVLCADHGEKLQLFCQEDGKVICWLCERSQEHRGHHTYLVE [F39Y], the abundance fitness amounted to 0.161 ± 0.19.

Turning to KAVLCADHGEKLQLFCQEDGKVICWLCERSQEHRGHHTALVE [F39A], the abundance fitness stood at 0.165 ± 0.058.

For the variant KAVLCADHGEKLQLFCQEDGKVICWLCERSQEHRGHHTFLVA [E42A], the abundance fitness was -0.852 ± 0.45.

On to KAVLCADHGEKLQLFCQEDGKVICWLCERSQEHRGHHTFLVC [E42C], for which the abundance fitness was -0.426 ± 0.22.
